The values that follow come from US20250257133A1 (ADAGENE PTE, published 2025).

For one assay, the target named is T1, B7H3 on MDA-MB-231 cells (UniProt Q5ZPR3 29-534, limits assumed).
T1 construct: whole, on cells
T1 sequence (looked up): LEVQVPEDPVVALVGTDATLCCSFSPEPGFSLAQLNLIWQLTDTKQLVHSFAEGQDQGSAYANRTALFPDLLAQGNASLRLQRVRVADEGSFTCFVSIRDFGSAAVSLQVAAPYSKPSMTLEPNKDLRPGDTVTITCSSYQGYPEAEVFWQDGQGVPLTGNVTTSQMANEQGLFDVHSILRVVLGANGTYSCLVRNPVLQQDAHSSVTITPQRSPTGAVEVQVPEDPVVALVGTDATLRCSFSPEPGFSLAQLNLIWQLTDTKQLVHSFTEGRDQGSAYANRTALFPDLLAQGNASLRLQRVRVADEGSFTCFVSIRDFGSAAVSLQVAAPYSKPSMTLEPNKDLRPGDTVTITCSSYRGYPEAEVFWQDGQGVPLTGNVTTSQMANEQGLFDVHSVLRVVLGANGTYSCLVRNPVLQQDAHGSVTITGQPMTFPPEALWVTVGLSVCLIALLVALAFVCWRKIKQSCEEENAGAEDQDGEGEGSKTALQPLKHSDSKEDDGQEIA
As to the kind of experiment: flow cytometry, MDA-MB-231 cells. (In flow cytometry, cells or beads pass a laser one at a time.)

The target in the next assay is T2, Mouse CD28 on cells (mouse, UniProt P31041 20-218).
T2 construct: also called CD28 on mouse T cells
Put plainly: flow cytometry on mouse T cells, median fluorescence intensity; drawn table. More on the design: AUC: unit not given beside the values.

The target in assay [1] is Mouse CD28 (ELISA of Example 13) (mouse, UniProt P31041 20-150, limits assumed). Put plainly: ELISA.
Assay [2] has as its target Human CD28 (ELISAs of Examples 4 and 13) (human, UniProt P10747 19-152, limits assumed). Put plainly: ELISA. In general terms: An ELISA detects its analyte on a solid surface through an enzyme-linked reagent.

T2 sequence (P31041 20-218 limits assumed): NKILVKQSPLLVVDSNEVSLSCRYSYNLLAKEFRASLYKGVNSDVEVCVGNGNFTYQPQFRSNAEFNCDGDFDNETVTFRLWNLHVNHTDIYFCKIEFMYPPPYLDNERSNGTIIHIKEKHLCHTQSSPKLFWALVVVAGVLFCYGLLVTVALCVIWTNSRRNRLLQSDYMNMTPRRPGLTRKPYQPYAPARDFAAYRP
Sequence of Mouse CD28 (ELISA of Example 13) (P31041 20-150 limits assumed): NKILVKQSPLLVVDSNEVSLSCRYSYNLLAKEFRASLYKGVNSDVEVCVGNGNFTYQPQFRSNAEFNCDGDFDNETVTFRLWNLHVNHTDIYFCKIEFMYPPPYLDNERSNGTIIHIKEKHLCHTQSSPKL
Procedure for B7H3 on MDA-MB-231 cells: An isotype antibody was included as a negative control.
MDA-MB-231 cells were cultured and seeded in 96-well plates at 1.0×10⁵ cells/well and incubated with serially diluted test BsAbs for 60 minutes at 4° C. in 2% FBS/RPMI1640 buffer. Next, the cells were washed twice with DPBS and further incubated with secondary APC-anti-human IgG Fe antibody (1:400 dilution) for 30 minutes at 4° C. Finally, the cells were washed twice with DPBS and resuspended in FACS buffer for flow cytometry analysis. For analysis, the MFI values versus concentrations were plotted using FlowJo 10 software (FlowJo LLC) and the data were further fitted with four-parameter non-linear regression to obtain EC₅₀ values by GraphPad Prism version 7 for Windows.

B1: TY21601 (antibody, V domains shown)
VH: EVQLVESGGGLVQPGGSLRLSCAASGFTFSGYGIHWVRQAPGKGLEWIGWISPSGGDTKYAQKFQGRVTISRDNSKNTLYLQLNSLRAEDTAVYYCARGGTVVYFDYWGQGTLVTVSS
VL: DIQLTQSPSSLSASVGDRVTITCRASQSIRKYLNWYQQKPGKAPKLLIYAASTLQSGVPSRFSGSGSGTDFTLTISSLQPEDFATYFCSQGTHVPFTFGQGTKVEIK
notes: also called parental anti-B7H3 mAb; B7H3 IgG
One may read the EC50 as the concentration giving half of the maximal effect. Molecule B1 returned a 50% effective concentration (EC50) in the assay with B7H3 on MDA-MB-231 cells of 0.453 nM.

B2: TY30120 (bispecific antibody, human IgG1, kappa, N297A)
light: DIQLTQSPSSLSASVGDRVTITCRASQSIRKYLNWYQQKPGKAPKLLIYAASTLQSGVPSRFSGSGSGTDFTLTISSLQPEDFATYFCSQGTHVPFTFGQGTKVEIKRTVAAPSVFIFPPSDEQLKSGTASVVCLLNNFYPREAKVQWKVDNALQSGNSQESVTEQDSKDSTYSLSSTLTLSKADYEKHKVYACEVTHQGLSSPVTKSFNRGEC
heavy: EVQLVESGGGLVQPGGSLRLSCAASGFTFSGYGIHWVRQAPGKGLEWIGWISPSGGDTKYAQKFQGRVTISRDNSKNTLYLQLNSLRAEDTAVYYCARGGTVVYFDYWGQGTLVTVSSASTKGPSVFPLAPSSKSTSGGTAALGCLVKDYFPEPVTVSWNSGALTSGVHTFPAVLQSSGLYSLSSVVTVPSSSLGTQTYICNVNHKPSNTKVDKKVEPKSCDKTHTCPPCPAPELLGGPSVFLFPPKPKDTLMISRTPEVTCVVVDVSHEDPEVKFNWYVDGVEVHNAKTKPREEQYASTYRVVSVLTVLHQDWLNGKEYKCKVSNKALPAPIEKTISKAKGQPREPQVYTLPPSRKKLTKNQVKLTCLVKGFYPSDIAVEWESNGQPENNYKTTPPVLDCDGSFFLYSKLTVDKSRWQQGNVFSCSVMHEALHNHYTQKSLSLSPGK
chain: EVQLVESGGGLVQPGGSLRLSCAASGFSLSTSGVGVSWIRQAPGKGLEWIGEIYHSGSTYYSPSLKSRVTISRDNSKNTLYLQLNSLRAEDTAVYYCARYGYYYYDFDYWGQGTLVTVSSGGGGSGGGGSGGGGSGGGGSDIQLTQSPSSLSASVGDRVTITCRASQSVDFHGISFLHWYQQKPGKAPKLLIYAASSLQSGVPSRFSGSGSGTDFTLTISSLQPEDFATYYCQQSYRSPRTFGQGTKVEIKEPKSSDKTHTCPPCPAPELLGGPSVFLFPPKPKDTLMISRTPEVTCVVVDVSHEDPEVKFNWYVDGVEVHNAKTKPREEQYASTYRVVSVLTVLHQDWLNGKEYKCKVSNKALPAPIEKTISKAKGQPREPQVYTDPPSRDELTKNQVSLTCLVDGFYPSDIAVEWESNGQPENCYKTTPPVLDSDGSFFLYSKLTVDKSRWQQGNVFSCSVMHEALHNHYTQDSLSLSPGK
notes: anti-B7H3 Fab x CD28 scFv BC10599 (VH-VL)-Fc
Take B2: in the assay with Mouse CD28 on cells, the AUC came to 4380, the EC50 came out at 145 nM and the “Max MFI” value was 2710. This molecule registered an EC50 in assay [1] of 74.2 nM. In assay [2], this molecule displayed an EC50 of 3.03 nM.

B3: TY27556 (bispecific antibody, human IgG1, kappa, N297A)
light: DIQLTQSPSSLSASVGDRVTITCRASQSIRKYLNWYQQKPGKAPKLLIYAASTLQSGVPSRFSGSGSGTDFTLTISSLQPEDFATYFCSQGTHVPFTFGQGTKVEIKRTVAAPSVFIFPPSDEQLKSGTASVVCLLNNFYPREAKVQWKVDNALQSGNSQESVTEQDSKDSTYSLSSTLTLSKADYEKHKVYACEVTHQGLSSPVTKSFNRGEC
heavy: EVQLVESGGGLVQPGGSLRLSCAASGFTFSGYGIHWVRQAPGKGLEWIGWISPSGGDTKYAQKFQGRVTISRDNSKNTLYLQLNSLRAEDTAVYYCARGGTVVYFDYWGQGTLVTVSSASTKGPSVFPLAPSSKSTSGGTAALGCLVKDYFPEPVTVSWNSGALTSGVHTFPAVLQSSGLYSLSSVVTVPSSSLGTQTYICNVNHKPSNTKVDKKVEPKSCDKTHTCPPCPAPELLGGPSVFLFPPKPKDTLMISRTPEVTCVVVDVSHEDPEVKFNWYVDGVEVHNAKTKPREEQYASTYRVVSVLTVLHQDWLNGKEYKCKVSNKALPAPIEKTISKAKGQPREPQVYTLPPSRKKLTKNQVKLTCLVKGFYPSDIAVEWESNGQPENNYKTTPPVLDCDGSFFLYSKLTVDKSRWQQGNVFSCSVMHEALHNHYTQKSLSLSPGK
chain: DIQLTQSPSSLSASVGDRVTITCRASQSVDFHGISFLHWYQQKPGKAPKLLIYAASSLQSGVPSRFSGSGSGTDFTLTISSLQPEDFATYYCQQSYRSPRTFGQGTKVEIKGGGGSGGGGSGGGGSGGGGSEVQLVESGGGLVQPGGSLRLSCAASGFSLSTGGVGVSWIRQAPGKGLEWIGEIYHSGSTYYSPSLKSRVTISRDNSKNTLYLQLNSLRAEDTAVYYCARYEYYYYDFDYWGQGTLVTVSSEPKSSDKTHTCPPCPAPELLGGPSVFLFPPKPKDTLMISRTPEVTCVVVDVSHEDPEVKFNWYVDGVEVHNAKTKPREEQYASTYRVVSVLTVLHQDWLNGKEYKCKVSNKALPAPIEKTISKAKGQPREPQVYTDPPSRDELTKNQVSLTCLVDGFYPSDIAVEWESNGQPENCYKTTPPVLDSDGSFFLYSKLTVDKSRWQQGNVFSCSVMHEALHNHYTQDSLSLSPGK
notes: also called anti-B7H3xCD28 BsAb
B3: in the assay with B7H3 on MDA-MB-231 cells, a half-maximal effect (EC50) was put at 12.8 nM and the “fold reduction of binding activity against TY21601” value was about 28 fold.

B4: TY29021 (bispecific antibody, human IgG1, kappa, N297A)
light: DIQLTQSPSSLSASVGDRVTITCRASQSIRKYLNWYQQKPGKAPKLLIYAASTLQSGVPSRFSGSGSGTDFTLTISSLQPEDFATYFCSQGTHVPFTFGQGTKVEIKRTVAAPSVFIFPPSDEQLKSGTASVVCLLNNFYPREAKVQWKVDNALQSGNSQESVTEQDSKDSTYSLSSTLTLSKADYEKHKVYACEVTHQGLSSPVTKSFNRGEC
heavy: EVQLVESGGGLVQPGGSLRLSCAASGFTFSGYGIHWVRQAPGKGLEWIGWISPSGGDTKYAQKFQGRVTISRDNSKNTLYLQLNSLRAEDTAVYYCARGGTVVYFDYWGQGTLVTVSSASTKGPSVFPLAPSSKSTSGGTAALGCLVKDYFPEPVTVSWNSGALTSGVHTFPAVLQSSGLYSLSSVVTVPSSSLGTQTYICNVNHKPSNTKVDKKVEPKSCDKTHTCPPCPAPELLGGPSVFLFPPKPKDTLMISRTPEVTCVVVDVSHEDPEVKFNWYVDGVEVHNAKTKPREEQYASTYRVVSVLTVLHQDWLNGKEYKCKVSNKALPAPIEKTISKAKGQPREPQVYTLPPSRKKLTKNQVKLTCLVKGFYPSDIAVEWESNGQPENNYKTTPPVLDCDGSFFLYSKLTVDKSRWQQGNVFSCSVMHEALHNHYTQKSLSLSPGK
chain: EVQLVESGGGLVQPGGSLRLSCAASGFSLSTGGVGVSWIRQAPGKGLEWIGEIYHSGSTYYSPSLKSRVTISRDNSKNTLYLQLNSLRAEDTAVYYCARYEYYYYDFDYWGQGTLVTVSSGGGGSGGGGSGGGGSGGGGSDIQLTQSPSSLSASVGDRVTITCRASQSVDFHGISFLHWYQQKPGKAPKLLIYAASSLQSGVPSRFSGSGSGTDFTLTISSLQPEDFATYYCQQSYRSPRTFGQGTKVEIKEPKSSDKTHTCPPCPAPELLGGPSVFLFPPKPKDTLMISRTPEVTCVVVDVSHEDPEVKFNWYVDGVEVHNAKTKPREEQYASTYRVVSVLTVLHQDWLNGKEYKCKVSNKALPAPIEKTISKAKGQPREPQVYTDPPSRDELTKNQVSLTCLVDGFYPSDIAVEWESNGQPENCYKTTPPVLDSDGSFFLYSKLTVDKSRWQQGNVFSCSVMHEALHNHYTQDSLSLSPGK
notes: anti-B7H3 Fab x CD28 scFv WT (VH-VL)-Fc; also called TY29021 (WT)
In the case of B4, in the assay with Mouse CD28 on cells, the AUC turned out to be 549 and the “Max MFI” value came out at 364. In assay [2], this molecule gave an EC50 of 36.4 nM.

B5: TY30121 (bispecific antibody, human IgG1, kappa, N297A)
light: DIQLTQSPSSLSASVGDRVTITCRASQSIRKYLNWYQQKPGKAPKLLIYAASTLQSGVPSRFSGSGSGTDFTLTISSLQPEDFATYFCSQGTHVPFTFGQGTKVEIKRTVAAPSVFIFPPSDEQLKSGTASVVCLLNNFYPREAKVQWKVDNALQSGNSQESVTEQDSKDSTYSLSSTLTLSKADYEKHKVYACEVTHQGLSSPVTKSFNRGEC
heavy: EVQLVESGGGLVQPGGSLRLSCAASGFTFSGYGIHWVRQAPGKGLEWIGWISPSGGDTKYAQKFQGRVTISRDNSKNTLYLQLNSLRAEDTAVYYCARGGTVVYFDYWGQGTLVTVSSASTKGPSVFPLAPSSKSTSGGTAALGCLVKDYFPEPVTVSWNSGALTSGVHTFPAVLQSSGLYSLSSVVTVPSSSLGTQTYICNVNHKPSNTKVDKKVEPKSCDKTHTCPPCPAPELLGGPSVFLFPPKPKDTLMISRTPEVTCVVVDVSHEDPEVKFNWYVDGVEVHNAKTKPREEQYASTYRVVSVLTVLHQDWLNGKEYKCKVSNKALPAPIEKTISKAKGQPREPQVYTLPPSRKKLTKNQVKLTCLVKGFYPSDIAVEWESNGQPENNYKTTPPVLDCDGSFFLYSKLTVDKSRWQQGNVFSCSVMHEALHNHYTQKSLSLSPGK
chain: EVQLVESGGGLVQPGGSLRLSCAASGFSLSTSGVGVGWIRQAPGKGLEWIGEIYHSGSTYYNPSLKSRVTISRDNSKNTLYLQLNSLRAEDTAVYYCARYKYDYYDFDYWGQGTLVTVSSGGGGSGGGGSGGGGSGGGGSDIQLTQSPSSLSASVGDRVTITCRASQSVDFHGISFLHWYQQKPGKAPKLLIYAASSLQSGVPSRFSGSGSGTDFTLTISSLQPEDFATYYCQQSYRSPRTFGQGTKVEIKEPKSSDKTHTCPPCPAPELLGGPSVFLFPPKPKDTLMISRTPEVTCVVVDVSHEDPEVKFNWYVDGVEVHNAKTKPREEQYASTYRVVSVLTVLHQDWLNGKEYKCKVSNKALPAPIEKTISKAKGQPREPQVYTDPPSRDELTKNQVSLTCLVDGFYPSDIAVEWESNGQPENCYKTTPPVLDSDGSFFLYSKLTVDKSRWQQGNVFSCSVMHEALHNHYTQDSLSLSPGK
notes: anti-B7H3 Fab x CD28 scFv BC10601 (VH-VL)-Fc
Consider B5, for which, in the assay with Mouse CD28 on cells, the AUC was found to be 4620; the midpoint of the response, the EC50, lay at 142 nM; the “Max MFI” value was 2860. The molecule further displayed a concentration for a half-maximal effect (EC50) in assay [1] of 108 nM. Also, it took 5.73 nM to reach a half-maximal effect in assay [2] (EC50).
